This is an account of results in US20240390468A1 (IMMUNOVACCINE TECHNOLOGIES, published 2024).

For assay [1], the target named is T1, MHC class 1 allele A*02:01.
T1 construct: also called HLA-A2; HLA-A*02:01
Nature of the assay: REVEAL kinetic score, HLA-A*02:01.

The target of assay [2] is T1, MHC class 1 allele A*02:01. Nature of the assay: REVEAL on-rate assay, HLA-A*02:01.
In assay [3] the target is T1, MHC class 1 allele A*02:01. Kind of assay: REVEAL peptide-MHC binding assay, HLA-A*02:01.
In assay [4] the target is T1, MHC class 1 allele A*02:01. Nature of the assay: REVEAL R-score, HLA-A*02:01.
For assay [5], the target named is T1, MHC class 1 allele A*02:01. Kind of assay: REVEAL off-rate assay, HLA-A*02:01.

In the case of ALSVMGVYV (also called p223; M9-A2-223) [MAGE-A9 223 (MAGE-A9 peptide antigen 223, ALSVMGVYV)], the Kinetic score in assay [1] turned out to be 13.1. The “On-rate T1/2” value in assay [2] came out at 9.17 h. Also, in assay [3], the REVEAL score stood at 199. In assay [4], this molecule came in with a R-score of 26. In addition, the “Off-rate T1/2” value in assay [5] is greater than 120 h.

Turning to KVAELVHFL (also called p111) [MAGE-A9 111 (MAGE-A9 peptide antigen 111, KVAELVHFL)], the Kinetic score in assay [1] came to 12.6. In assay [2], the “On-rate T1/2” value came to 9.52 h. The same molecule gave an REVEAL score in assay [3] of 166. In assay [4], this molecule returned a R-score of 20.9. For the same molecule, the “Off-rate T1/2” value in assay [5] is greater than 120 h.

Turning to FLWGSKAHA (also called p270; M9-A2-270) [MAGE-A9 270 (MAGE-A9 peptide antigen 270, FLWGSKAHA)], in assay [1], the Kinetic score came out at 12.7. Further, the “On-rate T1/2” value in assay [2] is 9.43 h. The same molecule displayed an REVEAL score in assay [3] of 173. Also, the R-score in assay [4] is 22.1. The “Off-rate T1/2” value in assay [5] is greater than 120 h.

LMLGEFLKL [SurA2.M (survivin peptide antigen HLA-A2, LMLGEFLKL)] registered a Kinetic score in assay [1] of 12.8. Further, the “On-rate T1/2” value in assay [2] was 9.36 h. For the same molecule, the REVEAL score in assay [3] turned out to be 172. This molecule had a R-score in assay [4] of 22.1. Further, in assay [5], the “Off-rate T1/2” value was greater than 120 h.
